Results as given in publication PMC8621939, “Cryo-EM Structure of Mechanosensitive Channel YnaI Using SMA2000: Challenges and Opportunities” (Membranes, 2021).

Target: the molecule itself
Experiment: cryo-EM structure; single-particle cryo-EM of SMA2000-purified YnaI, Titan Krios 300 kV; 3D classification without symmetry, final refinement with C7 symmetry, 2.4 Å; NCMN Buffer E (40 mM HEPES pH 7.8, 100 mM NaCl, 0.1 mM TCEP)

B1: low-conductance mechanosensitive channel-like (YnaI), wild type (natural protein, Escherichia coli, UniProt P0AEB5 1-343, looked up)
chain: MIAELFTNNALNLVIIFGSCAALILMSFWFRRGNRKRKGFLFHAVQFLIYTIIISAVGSIINYVIENYKLKFITPGVIDFICTSLIAVILTIKLFLLINQFEKQQIKKGRDITSARIMSRIIKITIIVVLVLLYGEHFGMSLSGLLTFGGIGGLAVGMAGKDILSNFFSGIMLYFDRPFSIGDWIRSPDRNIEGTVAEIGWRITKITTFDNRPLYVPNSLFSSISVENPGRMTNRRITTTIGLRYEDAAKVGVIVEAVREMLKNHPAIDQRQTLLVYFNQFADSSLNIMVYCFTKTTVWAEWLAAQQDVYLKIIDIVQSHGADFAFPSQTLYMDNITPPEQGR
notes: YnaI, MscS-like mechanosensitive channel of Escherichia coli, 343 aa, wild type, full length; Homoheptamer in SMA2000 native lipid particles; Only TM4, TM5 and the cytoplasmic domain are resolved in the map; seven phosphatidylethanolamine molecules were modelled; Cloned in pRSFDuet-1; also called mechanosensitive-like YnaI channel; SMA2000-YnaI; source: E. coli BL21 (DE3) pLysS, extracted from …
stoichiometry N: 7
